The target in this experiment is bacteriophage P22 coat protein (bacteriophage P22) (UniProt P26747). Briefly: densitometry of SDS-PAGE of the purified particles; purified ASNase-P22 nanoreactors from different chromatograms, bands quantified with ImageJ; numbers per capsid calculated on 420 CP.

As to “ASNase-SP chimeric protein (E. coli asparaginase II fused to the bacteriophage P22 scaffold protein) (from UniProt P00805 23-348) (enzyme)”, the ASNase-SP tetramers per capsid of 420 CP (tetramers per capsid) is 110, the monomers per capsid (monomers per capsid) is 448, the percent ASNase-SP in the nanoreactor's protein (densitometry) was 41.6% and the percent CP in the nanoreactor's protein (densitometry) was 58.4%.

The values above are taken from article PMC8170886.
